Source: patent EP4324849A1 (Emergence Therapeutics AG, dated 2024)
One block for each binder: values may come before it.

Key:
[1] = molecular target: T1, his-tagged recombinant extra cellular domain of the Nectin-4 protein (R&D systems/Biotechne) (Homo sapiens (Human), UniProt Q96NY8 32-349); assay: BLI (Octet Red96), antibody on AHC sensor, His-Nectin-4 ECD as analyte, 1:1 model
T1 construct: Bought protein; also called His-Nectin-4; recombinant his-tagged Nectin-4 EC; not shown: His tag
T1 sequence: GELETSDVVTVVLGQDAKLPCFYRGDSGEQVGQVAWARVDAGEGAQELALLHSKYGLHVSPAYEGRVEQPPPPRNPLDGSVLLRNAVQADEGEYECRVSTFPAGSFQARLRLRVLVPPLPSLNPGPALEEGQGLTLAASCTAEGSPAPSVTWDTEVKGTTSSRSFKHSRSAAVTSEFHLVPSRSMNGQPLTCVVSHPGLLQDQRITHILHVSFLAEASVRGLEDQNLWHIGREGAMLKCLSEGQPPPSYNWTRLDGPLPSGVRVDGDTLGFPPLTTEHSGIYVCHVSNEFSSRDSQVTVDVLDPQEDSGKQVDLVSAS

[2] = molecular target: T2, homodimer recombinant Fc protein, IgV domain of human Nectin-4 fused to human Fc domain (human, UniProt Q96NY8 32-146, limits assumed); assay: BLI (Octet Red96), antibody on FAB2G sensor, IgV-Fc homodimer as analyte, 1:2 bivalent analyte model
T2 construct: also called Fc-Nectin-4; Fc fusion IgV Nectin-4 domain; not shown: human Fc domain
T2 sequence: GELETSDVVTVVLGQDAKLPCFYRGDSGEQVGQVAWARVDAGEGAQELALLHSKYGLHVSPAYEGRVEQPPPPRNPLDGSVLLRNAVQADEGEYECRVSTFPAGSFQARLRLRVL

[3] = molecular target: T1, his-tagged recombinant extra cellular …; assay: BLI (Octet Red96), His-Nectin-4 ECD as analyte

Kd [1]: 5.2 nM
Kd [2]: 12.9 nM
B1: HA22 (Enfortumab), human monoclonal anti-Nectin-4 antibody (antibody, V domains shown)
VH: EVQLVESGGGLVQPGGSLRLSCAASGFTFSSYNMNWVRQAPGKGLEWVSYISSSSSTIYYADSVKGRFTISRDNAKNSLSLQMNSLRDEDTAVYYCARAYYYGMDVWGQGTTVTVSS
VL: DIQMTQSPSSVSASVGDRVTITCRASQGISGWLAWYQQKPGKAPKFLIYAASTLQSGVPSRFSGSGSGTDFTLTISSLQPEDFATYYCQQANSFPPTFGGGTKVEIK

Kd [3]: 3.4 nM
koff [3]: 0.000928 s⁻¹
kon [3]: 275000 M⁻¹ s⁻¹
Kd [1]: 4.2 nM
Kd [2]: 5.3 nM
B2: Ch-5A12.2 (parental chimeric 5A12.2 monoclonal anti-Nectin-4 antibody) (antibody, V domains shown)
VH: QIQLQQSGAELVKPGASVTLSCKTSGFTFNSMYISWLKQKPGQSLEWIAWIYAGTGGTRFNQKFTGKVQLTVDTSSSTAYMQFSSLTTDDSAIYYCAIRSGFVPMDYWGQGTSVTVSS
VL: SIVMTQTPKFLLVSAGDRVTITCKASQSVSNDVAWYQQKPGQSPKLLIYYASNRYTGVPDRFTGSGYGTDFTFTISTVQAEDLAVYFCQQDYSSPWTFGGGTKLEIK
